The source of these data is PMC9289529, “Varicella‐Zoster virus ORF9 is an antagonist of the DNA sensor cGAS”.

For series [1], the target named is hcGAS;ORF9 (phase separation preparation) (human;Varicella-zoster virus, UniProt Q8N884;Q4JQW6 1-522;1-302, |). Briefly: phase separation microscopy; 3-fold molar excess ORF9; larger droplets, also formed at 300 mM NaCl/KCl; Binding buffers for pull-down, EMSA and phase separation not in the material; phase separation tested at varied NaCl/KCl up to 300 mM or more. The following applies: protein: recombinant;recombinant; tags: 6xHis-SUMO2 construct (pET);6xHis-SUMO2 removed by SENP2; blunt. For orientation: In EMSA bound probe runs differently from free probe, usually more slowly.

The target in series [2] is T1, hcGAS (human, UniProt Q8N884 1-522). The series can be described thus: phase separation microscopy; droplets sensitive to salt >250 mM; none at 300 mM NaCl/KCl; Binding buffers for pull-down, EMSA and phase separation not in the material; phase separation tested at varied NaCl/KCl up to 300 mM or more. The following applies: protein: recombinant; tags: 6xHis-SUMO2 construct (pET); blunt.

Series [3] concerns the target T2, ORF9 (phase separation preparation) (Varicella-zoster virus, UniProt Q4JQW6 1-302).
T2 sequence: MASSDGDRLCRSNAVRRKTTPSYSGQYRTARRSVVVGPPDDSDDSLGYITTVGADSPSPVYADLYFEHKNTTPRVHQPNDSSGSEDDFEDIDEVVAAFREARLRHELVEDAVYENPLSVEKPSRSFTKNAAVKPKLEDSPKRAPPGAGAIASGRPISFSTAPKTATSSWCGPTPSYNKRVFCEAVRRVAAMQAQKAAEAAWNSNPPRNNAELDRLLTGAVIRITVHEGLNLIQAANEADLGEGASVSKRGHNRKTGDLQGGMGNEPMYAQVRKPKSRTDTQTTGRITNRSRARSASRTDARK
The series can be described thus: phase separation microscopy; no cGAS; smaller droplets than cGAS-DNA; Binding buffers for pull-down, EMSA and phase separation not in the material; phase separation tested at varied NaCl/KCl up to 300 mM or more. The following applies: protein: recombinant; tags: 6xHis-SUMO2 removed by SENP2; blunt.

The target in series [4] is cGAS (pull-down preparation) (human, UniProt Q8N884 1-522). Briefly: pull-down; Binding buffers for pull-down, EMSA and phase separation not in the material; phase separation tested at varied NaCl/KCl up to 300 mM or more. The following applies: protein: recombinant; tags: GST cleaved by PreScission; label: biotin; blunt.
In series [5] the target is T3, ORF9 (FLAG-ORF9) (Varicella-zoster virus, UniProt Q4JQW6 1-302).
T3 sequence: T2 sequence
Briefly: pull-down. Particulars: protein: recombinant; tags: N-terminal FLAG (GST cleaved by PreScission); label: biotin; blunt.

The target in series [6] is hcGAS;ORF9 (EMSA preparation) (human;Varicella-zoster virus, UniProt Q8N884;Q4JQW6 1-522;1-302, |). The series can be described thus: EMSA (agarose); increasing ORF9 enlarges cGAS-DNA complexes; Binding buffers for pull-down, EMSA and phase separation not in the material; phase separation tested at varied NaCl/KCl up to 300 mM or more. Particulars: protein: recombinant;recombinant; tags: 6xHis-SUMO2 construct (pET);N-terminal FLAG (pET28a, Ni-NTA purified); blunt.

Series [7] has as its target T4, ORF9 (EMSA preparation) (Varicella-zoster virus, UniProt Q4JQW6 1-302).
T4 sequence: T2 sequence
Briefly: EMSA (agarose); Binding buffers for pull-down, EMSA and phase separation not in the material; phase separation tested at varied NaCl/KCl up to 300 mM or more. The following applies: protein: recombinant; tags: N-terminal FLAG (pET28a, Ni-NTA purified); blunt.

Series [8] has as its target T1, hcGAS. Briefly: EMSA (agarose); high-molecular-weight complexes; Binding buffers for pull-down, EMSA and phase separation not in the material; phase separation tested at varied NaCl/KCl up to 300 mM or more. Particulars: protein: recombinant; tags: 6xHis-SUMO2 construct (pET); blunt.

T1 sequence (Q8N884 whole entry): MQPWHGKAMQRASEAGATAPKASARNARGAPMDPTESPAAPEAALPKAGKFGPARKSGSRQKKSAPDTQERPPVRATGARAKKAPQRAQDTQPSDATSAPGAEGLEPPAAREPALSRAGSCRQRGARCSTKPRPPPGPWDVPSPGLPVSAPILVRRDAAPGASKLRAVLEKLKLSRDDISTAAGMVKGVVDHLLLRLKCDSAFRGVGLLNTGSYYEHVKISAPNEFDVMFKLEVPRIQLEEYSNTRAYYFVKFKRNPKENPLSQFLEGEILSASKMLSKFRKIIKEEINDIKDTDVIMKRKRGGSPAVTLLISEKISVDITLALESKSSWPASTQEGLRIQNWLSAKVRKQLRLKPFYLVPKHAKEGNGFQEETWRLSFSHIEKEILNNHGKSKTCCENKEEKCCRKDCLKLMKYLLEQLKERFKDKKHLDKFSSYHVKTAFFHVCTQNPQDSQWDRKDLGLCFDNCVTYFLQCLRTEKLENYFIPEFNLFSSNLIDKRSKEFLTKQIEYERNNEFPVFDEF
hcGAS;ORF9 (phase separation preparation), sequence (Q8N884 whole entry, one chain of several): as the sequence (Q8N884 whole entry) above
hcGAS;ORF9 (EMSA preparation), sequence (Q8N884 whole entry, one chain of several): as the sequence (Q8N884 whole entry) above
cGAS (pull-down preparation), sequence (Q8N884 whole entry): as above

B1: 100 bp ISD (dsDNA)
DNA 1: ACATCTAGTACATGTCTAGTCAGTATCTAGTGATTATCTAGACATACATCTAGTACATGTCTAGTCAGTATCTAGTGATTATCTAGACATGGACTCATCC
DNA 2: GGATGAGTCCATGTCTAGATAATCACTAGATACTGACTAGACATGTACTAGATGTATGTCTAGATAATCACTAGATACTGACTAGACATGTACTAGATGT
On to B1, for which the binding result in series [1], in series [2] and in series [3] was “binds” each time.

B2: VACV-70mer-Biotin (dsDNA)
DNA 1: CCATCAGAAAGAGGTTTAATATTTTTGTGAGACCATCGAAGAGAGAAAGAGATAAAACTTTTTTACGACT
DNA 2: AGTCGTAAAAAAGTTTTATCTCTTTCTCTCTTCGATGGTCTCACAAAAATATTAAACCTCTTTCTGATGG
modifications: 3' TEG-biotin on forward strand
B2: the binding result in series [4] and in series [5] was “binds” in each case.

B3: VACV70mer dsDNA (dsDNA)
DNA 1: B2 DNA 1
DNA 2: B2 DNA 2
Regarding B3, the binding result in series [6], in series [7] and in series [8] was “binds” throughout.
